Experiments:
[1] = molecular target: Recombinant water soluble mouse PLVAP (extracellular domain, residues 48-438) (mouse) (UniProt Q91VC4); assay: competitive ELISA on plate-coated mouse PLVAP; competitor biotinylated MECA32 mAb
[2] = molecular target: Recombinant water soluble mouse PLVAP (extracellular domain, residues 48-438) (mouse) (UniProt Q91VC4); assay: told in the legend of the competitive ELISA; method of the comparison not stated
[3] = molecular target: Recombinant water soluble mouse PLVAP (extracellular domain, residues 48-438) (mouse) (UniProt Q91VC4); assay: Scatchard analysis; plate-coated recombinant mouse PLVAP, bound Fab-TF measured by chromogenic TF activity; mean ± SD of 6 batches
[4] = molecular target: T1, Recombinant water soluble mouse PLVAP (extracellular domain, residues 48-438) (mouse, UniProt Q91VC4 48-438); assay: ELISA on plate-coated mouse PLVAP, detected with biotinylated anti-hTF antibody
T1 construct: The cDNA clone (Invitrogen) is not tied to NP_115774.2 in words; His-tag not reported as removed; also called mPLVAP; His-mPLVAP; not shown: His-tag of the pET-15b vector
T1 sequence: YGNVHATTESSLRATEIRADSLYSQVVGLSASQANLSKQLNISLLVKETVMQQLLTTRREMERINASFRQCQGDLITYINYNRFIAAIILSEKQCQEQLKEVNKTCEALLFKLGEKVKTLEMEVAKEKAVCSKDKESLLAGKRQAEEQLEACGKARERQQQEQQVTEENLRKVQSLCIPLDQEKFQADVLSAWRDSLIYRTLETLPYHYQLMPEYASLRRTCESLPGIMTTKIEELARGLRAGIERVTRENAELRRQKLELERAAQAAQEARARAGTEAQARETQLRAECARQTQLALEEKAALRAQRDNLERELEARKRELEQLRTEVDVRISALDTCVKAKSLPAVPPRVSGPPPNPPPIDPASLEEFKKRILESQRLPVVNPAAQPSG

[5] = molecular target: T2, Recombinant water soluble human PLVAP (extracellular domain, residues 51-442) (human) (UniProt Q9BX97); assay: Scatchard analysis; plate-coated recombinant human PLVAP, bound Fab-TF measured by chromogenic TF activity; mean ± SD of 3 batches
T2 sequence: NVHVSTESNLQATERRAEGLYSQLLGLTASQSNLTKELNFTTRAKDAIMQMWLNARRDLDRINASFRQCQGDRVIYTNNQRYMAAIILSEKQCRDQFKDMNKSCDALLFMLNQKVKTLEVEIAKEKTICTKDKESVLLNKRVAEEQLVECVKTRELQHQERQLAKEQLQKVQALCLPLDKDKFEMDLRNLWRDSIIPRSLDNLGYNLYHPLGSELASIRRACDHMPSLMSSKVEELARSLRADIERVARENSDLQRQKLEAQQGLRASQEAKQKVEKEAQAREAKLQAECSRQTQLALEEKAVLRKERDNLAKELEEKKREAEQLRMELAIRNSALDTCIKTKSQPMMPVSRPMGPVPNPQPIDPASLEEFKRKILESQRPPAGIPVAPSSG

Molecule: Rat anti-mouse PLVAP MECA32 monoclonal antibody
- potency in competition against MECA32-Fab-TF [1]: 1 log

Molecule: Fab fragment of MECA32 anti-mouse PLVAP monoclonal antibody co-expressing human tissue factor
- binding affinity against MECA32 mAb [2]: 1 log lower
- Kd [3]: 57.2 nM

B1: Soluble human tissue factor without antibody (other)
chain: SGTTNTVAAYNLTWKSTNFKTILEWEPKPVNQVYTVQISTKSGDWKSKCFYTTDTECDLTDEIVKDVKQTYLARVFSYPAGNVESTGSAGEPLYENSPEFTPYLETNLGQPTIQSFEQVGTKVNVTVEDERTLVRRNNTFLSLRDVFGKDLIYTLYYWKSSSSGKKTAKTNTNEFLIDVDKGENYCFSVQAVIPSRTVNRKSTDSPVECMGQEKGEFRE
notes: also called hTF; control soluble hTF
- binding result [4]: no binding

B2: Recombinant Fab fragment of CSRO2 anti-human PLVAP monoclonal antibody co-expressing water-soluble human tissue factor (Fab, part only; not given: Humanized CSRO2 kappa light chain, part only)
heavy: MQVQLVQSGSELKKPGASVKVSCKASGYTFTSNYINWVRQAPGQGLEWMGNIYPSDGFTNYNQKFKDRVTITVDKSTSTAYMELSSLRSEDTAVYYCTRNFDVWGQGTTVTVSSASTKGPSVFPLAPCSRSTSESTAALGCLVKDYFPEPVTVSWNSGALTSGVHTFPAVLQSSGLYSLSSVVTVPSSSLGTKTYTCNVDHKPSNTKVDKRVESKYGPPCPSCPGGGGSGGGGSGGGGSSGTTNTVAAYNLTWKSTNFKTILEWEPKPVNQVYTVQISTKSGDWKSKCFYTTDTECDLTDEIVKDVKQTYLARVFSYPAGNVESTGSAGEPLYENSPEFTPYLETNLGQPTIQSFEQVGTKVNVTVEDERTLVRRNNTFLSLRDVFGKDLIYTLYYWKSSSSGKKTAKTNTNEFLIDVDKGENYCFSVQAVIPSRTVNRKSTDSPVECMGQEKGEFRE
- Kd [5]: 30.7 nM
